The results in this text go back to the DeepSol protein solubility set.

The data set is described as follows: soluble on expression in E. coli; label from the status in PepcDB or PDB records.
As for “MGSDKIHHHHHHKSTDYELKYSYAKKYFNAKQYSKSATLLDELVTIFKGTAYAEESLYLLAQSYYGQKDYQTASQYFETYYTTYPKGEFTELSRFYSGYGLYLDSPDPRLDQSQTYKAIEQLQLYLEYYPQSERAEEAQNIMFELQEKLAYKELMATRLYFNLGTYMGNNFQSCVITAQNALKNYPYSKYREEFMFLIIRAKYELALVSVEEKLQGRYRDVVDEYYNYMNEYPEGNYVKQVTKFYDYASKRITDAY”, the “soluble on expression in E. coli” value is listed as “not soluble”.
As to “MTLKGMSYVMCTGSFKLEKEVAETQHGTVLVQVKYEGTDAPCKIPFSTQDEKGATQNGRLITANPIVTDKEKPVNIEAEPPFGESYIVVGAGEKALKLSWFKKGSSIG”, the “soluble on expression in E. coli” value is “soluble”.
To “MGCSGGDATACANLAQMYENKKNADSNDKENALQLYAVACQGGDMLACNNLGWMFANGSGVPKDYYKAISYYKFSCENGNDMGCYNLGLMSNVNNIYGIDKAQLSQVDLNYLACNAGDMMGCANLGWIYANGDLGAPLNNHYAAKYFQMACDGGILGSCNNLGVLYQKGLGVPQDDQRALDLFSYACDNGFESSCRNYGNFKEHLLRVNPNYGRLFMPYNSYDIPLEHHHHHH” belongs “not soluble”.
Take “MGSDKIHHHHHHMGMDFKVPDYMQELALASGQGLDQLSAVLARILDHPVLISSSAYKLFSSSSHYDFESFHIYSNQPRTGSDALFTCHILTDTMQSLALGRVVAPFGRTLGYIFMLTDDDSPDPTHFKPLLDYAASLCAVHLQNRLELKQEQSKFKNAFLYDLIYGNLKRNDEIIATGELWGWNFRRPHTIMVFLLPEPDFYTTEWHLMDVLSRIVEQNFIEIYYKNPAVILRQNELILFVPMQTDKPAVQTEELLVFADKILSQVQNTELKGLAACGVGQAYSEATVLFRSYQEAKVALEMGKLLGIPIPFFRDLGLERILYKHDLQDLKEYYLHVLGELHKQDDQDSSLVTILESFAENQFDVGKTAKALFMHPNTLRYRLNKIENILGKPLTDNHARLDIMAAFKIKRLHTIETLLA”: the “soluble on expression in E. coli” value is reported as “not soluble”.
To “MGSDKIHHHHHHMYDNDLWFATINLPYRQKLELLRIYKTSDEILYNFKNSELIQKYKFDIEKINYIKDEMKKSGMKIVFWNDDDYPKVLKNYDDMPYGLFYMGNIKKLNELNYNVAIVGSRRCTQYGKDITTIISREISINGIGIISGMARGIDTYAHKICLENNGYTCAVLGCGADVIYPKENKNLYCQIIRNGCIISQYKPNTKPLPYNFPIRNKIISGLSNLVLVTEADIKSGSIITASSALEQGKDVGAVPGSVFSKMSRGTNKLIQDGAHVIKDIDDVFGILNFQKINFKKIRNNSSYSSMPENQRQIYDLVSDKPIHVDDIKRCLNIDIQELYELLFEMQLKNKILCLSGSYYVRVNDCL” belongs “not soluble”; to “MGSDKIHHHHHHMVSSSAKLHDPEEGSAANFPDIDNLKIAFGQLPSGVVIVTSQGCGGEMVGATVSSFASLSFTPPLVMLGLAQSSTTLSAILDHGHFAVHVVAEPQQDIAMRFASSRADKFSDIDFKLSPSGVPILSEFDTCFHCALERAQSAGDHQLLIGRIVDVSTVERDTTPVAWFNRRFHICEPRALV”, “not soluble”; to “GPGSMTERLSLSRDRINVLLLEGISQTAVEYFKSSGYTNVTHLPKALDKADLIKAISSAHIIGIRSRTQLTEEIFAAANRLIAVGCFSVGTNQVELKAARKRGIPVFNAPFSNTRSVAELVIGEIIMLMRRIFPRSVSAHAGGWEKTAIGSREVRGKTLGIVGYGNIGSQVGNLAESLGMTVRYYDTSDKLQYGNVKPAASLDELLKTSDVVSLHVPSSKSTSKLITEAKLRKMKKGAFLINNARGSDVDLEALAKVLQEGHLAGAAIDVFPVEPASNGERFSTPLQGLENVILTPHIGGSTEEAQERIGTEVTRKLVEYSDVGSTVGAVNFPQVQLPPRPTGTRFMHVHENRPGILNSLMNVFSHHHINIASQFLQTDGEVGYLVMEADGVGEASDAVLQEIREIPGTIRARLLY”, “soluble”.
To “WGYEAVGRFTSWEQIATYPIDNDRKGNKTVVPGDIMYKDVNGDGVINYMDERPIGYRSDSTPTLNFGINLSASWKGFDLAMDWTGSGMTSWQQQYETARPFQNDGNSPEEVFKDAWHLADIWDADSQLIPGKYPLIRLNNEETSAYDKSTFWLHNVKYIKLRNLEFGYTLPKRIVAKAGISNLRLYVSGTNLFSISNIPFMDPECIDSNGLDYPTMRVVNLGINLKF” belongs “not soluble”; to “MGSDKIHHHHHHMIKFLYFTDTHIRGTAPKNRLDPFVETLKHKLHEVMEIAETEKVDMLLHGGDVFDRPDLSPNVVGQFAQIFRKTSRPIYAIAGNHDTFGHNPETISRTMLGLLHSFGIIHIIDPQTPVLVEKDGVKVQISGQPYHYDIDQRDPKLDYYPVNVHEADVMVHLVHSMLVEKALPEGIPHTLIDHIWGTSADVLLTGHFHGGFGIKQKDGRYICNPGAIARINNHWTELVRTPTVILGTITKDGIDLKERPLQSAKNGEEVLDRSFLEKSINQEEKLHAFIQQVKEHAEFQSLNMNDVINEIAAMSNVEEPVKQEALRRITVIEEAWKGGEHEYD”, “not soluble”; to “MGSDKIHHHHHHMTNLVTLENVSVAFGQRRVLSDISLALTPGKILTLLGPNGAGKSTLVRVVLGLVAPTEGVIKRDARLRIGYVPQKLHLDATLPLTVSRFLRLRPGTRKDDILPALKRVQAGHLIDAPMQKLSGGETQRVLLARALLNRPQLLVLDEPTQGVDVNGQVALYDLINQLRHELDCAVLMVSHDLHLVMAKTDEVLCLNQHICCSGAPEVVSMHPEFISMFGPRGAEQLGIYRHHHNHRHDLQGRIVLRRGNSR”, “not soluble”.
“MVLDRQHLGVTKSRCIVWGVAFLSDGTVISVDSVGKVQLWDSATGTLVKSHLVANADVQSIAVADQEDSFVVGTAEGTVFHFQLVSMTSNSSEKQWVRTKPFQHHTHDVRAVAHSPTALISGGTDTHLVIRPLMERVEVKNYDAALRKITFPHRRLISCSKRRQLLLFQFAHHLELWRLGSTSATGKNGDTLPLSKNADHLLHLKTKGPENIICSCVSPCGSWIAYSTASRFFLYRLKYERDNISLQRVSKLPSFLRSALHILFSEDSTKLLVASNQGSLHIVHLSEGSFKHLHTFQPQSGTVEAMCLLAVSPDGNWLAASGTSAGVHVYDLHHLKLHCTVPAYNFPVTALAIAPNTNNLVIAHSDQQVFEFSIPEKQYTEWSRSLQKQGFHQLWLQRDTPITHISFHPKRPMHILLHDAYMFCIIDKSLPLPNEKTVLYNPLPPKNESDVFLRRTTHGFKMSKIYKPLLFMDLLDERTLVAVERPLDDIIAQLPPPIKKKKFGT”: the “soluble on expression in E. coli” value was “not soluble”.
Turning to “MGSDKIHHHHHHMHQLKREALLREAIAAFNQKGFHATSLGDIATSLGVTKAALYHYFPNKHALLFEAFAEALRVGFEAIEAAERHGGSGLDKLQMAVREYLQVTLSEMSRCVIITEEHALEPQDRAKIVEQRDRFEAKLRGFVREGIEDGSVIPCDPKLAIFSIFGAVNWVPKWFSDSGNWSNKQLAKGMSELLCRAVARHPAEAFAPDIGKMRVE”, the “soluble on expression in E. coli” value is “not soluble”.
To “MGSDKIHHHHHHGNLEEMNIDPDNATQTHPKLLLTQICMNAFKRGTDGMYATKKVIQADGESADQYYKWTRGSFGYYDNLRNVQKMGEEAERVNAPVYTALTKFFRAYYFYELTLRFGDIPYSQALKGEKEEIYTPEYDAQEDVFAGILQELREADEILANDASVIDGDIIYNGNSTQWRKLINSFRLKVLMTLSNHTTVGNINIASEFKNIATNSPLMNSLADNGQLVYLDQQGNRYPQFNAQWSGYYMDDTFIQRMRERRDPRLFIFSAQTNKGKTEGKPIDDFSSYEGGDPAAPYSDAIIKVSEGTISPINDRFRTDPIVEPTMLMGYAELQQILAEAVVRGWISGNAQTYYEKGIRASFSFYETHAKDYAGYLNENAVAQYLKEPLVDFTQASGTEEQIERIIMQKYLVTFYQGNWDSFYEQLRTGYPDFRRPAGTEIPKRWMYPQGEYDNNGTNVETAITRQFGAGNDKINQATWWQKKS” belongs “not soluble”.
To “GPGSMNPSKVVQGTPNSVEWDPRNPPDTPFFTETTAVERSRIPTEYIRRMEEATRLYAMHREGRHALHTACQIASWTVATQCCWLCVGVWLTVRGYRHANPAHSFVSGMTSNKVFCRVFTPIPVLGLTMMGVTAAQLPRDVKVLITAREGRMEEENCMKSAFDQCMAALAEGRLAMGKEGILTA” belongs “not soluble”; to “MKKYILSLDQGTTSSRAILFNKKGEIVHSAQKEFTQHFPKPGWVEHNAQEIWGSILAVIATCLSEADVKPEQIAGIGITNQRETAVVWDKTTGKPIYNAIVWQSRQTAEICDELKEKGYSEMVREKTGLLIDAYFSGTKVKWILDNVEGAREKAENGDLLFGTIDTWLVWKLSGGKAHVTDYSNASRTLMFNIHDLQWDDELLDMLTVPKSMLPEVRPSSEVYGETIDYHFFGQNVPIAGVAGDQQAALFGQACFGEGMAKNTYGTGCFMLMNTGEKAVASEHGLLTTIAWGIDGKVNYALEGSIFVAGSAIQWLRDGMRMFKDASESEVYASRVESTDGVYVVPAFVGLGTPYWDSEVRGAMFGVTRGTTKEHFIRATLESLAYQIKDVLCAMEADSGIELKTLRVDGGAVKNNFLMKFQSDILDVPVERPVINETTALGAAYLAGLAVGYWKNQDEIKEQWHMDKRFEPTMEAETSEELYAGWKKAIEATKAFK”, “not soluble”; to “MMRIAVKEFLKIRRELKTLSDIRKLPYPRGTLHCILQQKKVDSVKRKYHTFAERIPEIISYWEREKKFPKWLTLPPVMKIRLLMKGMGFSAKSINKALRNPEDVVEDEKLAEQIRKAVLSDYVYSPIAARLQRARGKLGERGLAYELEKAGIEFLTEKDLKGRFSKTPDFYFEEPVEFMGEELKWIESKALFGDPRSHDLYWKKQYSKYYEMFGNGLIVYWLGCVESIEASDGSEFKNGYRTSLLDMLLYLTDSKDESYAERLNARFIEVNEQNDVLAAEKVVDAYAEGRVLAFTDRKREVARILKNMGFDVTLGQNYLTTLTANTLCHSPTANKAISLLSSLLCLINHPNLLLSAENPASLKFLLKYLFRNLLEHHHHHH”, “not soluble”.
To “YEQKIRLENRSVAGKWALSQKGFDGKKLMRAYDSPEAAAAALKMQKLTEQYRIDSTPTVIVGGKYRVIFNNGFDGGVHTIKELVAKVREERKRQTPAVQK” belongs “not soluble”; to “VLTCNEAFARMRGQSVKEIEGSSIVSLYAPEDQQMVKDKLKITDSTGFCSCQAKMMRKDGTIFPVQIDVVGLKDENGQIMYRIVTVQDSTER”, “not soluble”; to “MKIVCSKEQLMEGINVVQKAVPTKATLTILEGILLEAYDNFKMTGNDLELGIECLIDADILEKGSIVLNSKMFGDIVRRLPDSEVLIEVKENNTVIIECDNSHFELRGMPSDSFPSLPSIEKENMIKVSQKAIRDMIRQTLFAVSTEGTRPILTGSLIECAGNEITFVSIDGFRMALRKNFNNEGFSEFSVVVPAKTLSEIGKILQPVDEDIYIYSSQNQILFEIGNCKVVSRLLEGEYLNYKSIIPPEYETSVRLRTEDLLSSLERASLITSDEKKYPVKFNIIDDKIIITSNTEIGAVREEIRVEVNGSNMEVGFNPRYFIEALRVIDDELVDIYFNSSVGPCTIRPLEGDSFAYMILPVRINK”, “soluble”.
Turning to “MMKEMTVQQMTEKVLNKESLFILDVRNESDFRDWKIEGENFAYLNVPYFELVHGVDSIVDRLPKDQDIVVVCAKGGSAAFVAEQLAEAGFDNVYTLAGGMQAWSEHLHQAKVYEDDQLKIYQFIRVGKGCLSYMVLSGDEALVVDPLRFIDVYEQVAQQEGVTITHIVDSHLHADHLSGGKALAERTGAAYYLMKSEGAVFDFEPLEQHETIDFENVHLEVLAVKTPGHTPGSVSFFVNGKWLFSGDTIFVGGLGRPDLGGKVAEWAEDLYHTVYEKVAAMADDVIVLPAHYANLDEEINAEGYVGDTLGRIRARNEMMQNKAKDEFIDLVIQGAKTETPPNFEDIVAINRGLKTVDIETQRELEIGPLEHHHHHH”, the “soluble on expression in E. coli” value was “soluble”.
